Substitutions are numbered along the chain they refer to.
B1: 565 (protein)
chain: LDNGLARTPTMGWLHWERFMCNLDCQEEPDSCISEKLFMEMAERMVSEGWKDAGYEYLCIDDCWMAPQRDSEGRLQADPQRFPHGIRQLANHVHSKGLKLGIYADVGNKTCAGFPGSFGYYDIDAQTFADWGVDLLKFDGCYCDSLENLADGYKHMSLALNRTGRSIVYSCEWPLYMWPFQKPNYTEIRQYCNHWRNFADIDDSWASIKSILDWTSRNQERIVDVAGPGGWNDPDMLVIGNFGLSWDQQVTQMALWAIMAAPLFMSNDLRHISPQAKALLQDKDVIAINQDPLGKQGYQLRKGDNFEVWERPLSGDAWAVAIINRQEIGGPRSYTIPVASLGKGVACEPACFITQLLPVKRQLGFYNWTSRLKSHINPTGTVLLQLENTMQMSLKDLL
modifications: Synthetic Polypeptide sequence of Variant No. 565 of mature Human GLA
B2: 576 (protein)
chain: B1 chain with S314Y, E348N
modifications: Synthetic Polypeptide sequence of Variant No. 576 of mature Human GLA
B3: 573 (protein)
chain: B1 chain with S314A, E348N
modifications: Synthetic Polypeptide sequence of Variant No. 573 of mature Human GLA
B4: 570 (protein)
chain: B1 chain with E348N, T354S
modifications: Synthetic Polypeptide sequence of Variant No. 570 of mature Human GLA
B5: 575 (protein)
chain: B1 chain with S314N, E348N
modifications: Synthetic Polypeptide sequence of Variant No. 575 of mature Human GLA
B6: 569 (protein)
chain: B1 chain with E348W
modifications: Synthetic Polypeptide sequence of Variant No. 569 of mature Human GLA
B7: 567 (protein)
chain: B1 chain with E348Q
modifications: Synthetic Polypeptide sequence of Variant No. 567 of mature Human GLA
B8: 571 (protein)
chain: B1 chain with N305K, E348N
modifications: Synthetic Polypeptide sequence of Variant No. 571 of mature Human GLA
B9: 566 (protein)
chain: B1 chain with E348M
modifications: Synthetic Polypeptide sequence of Variant No. 566 of mature Human GLA
B10: 572 (protein)
chain: B1 chain with N305L, E348N
modifications: Synthetic Polypeptide sequence of Variant No. 572 of mature Human GLA
B11: 574 (protein)
chain: B1 chain with S314H, E348N
modifications: Synthetic Polypeptide sequence of Variant No. 574 of mature Human GLA
B12: 568 (protein)
chain: B1 chain with E348R
modifications: Synthetic Polypeptide sequence of Variant No. 568 of mature Human GLA

Assays:
Assay type in all cases: biochemical
[1] = HTP-analysis of yeast culture supernatants, no challenge (MUGal hydrolysis); details: activity of the variant/activity of Rd3BB (SEQ ID NO: 13)
Outline: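 GLA variants expressed in yeast INVSc1, secreted into SD-Ura broth over 66-84 h at 30° C; clarified supernatants tested without challenge. Supernatant mixed with McIlvaine buffer pH 4.8 and 2 mM MUGal (citrate/KCl, pH 4.6), 37° C for 30-180 min, carbonate-quenched, fluorescence Ex 355/Em 448 nm.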

[2] = HTP-analysis of supernatants pretreated with acid (MUGal hydrolysis); details: activity of the variant/activity of Rd3BB (SEQ ID NO: 13); challenge at pH 3.7
Outline: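 MUGal hydrolysis was tracked by fluorescence (Ex 355 nm, Em 448 nm) after a 30-180 min reaction at 37° C. in pH 4.8 McIlvaine/citrate buffer, stopped with 1 M sodium carbonate. Beforehand, yeast (INVSc1) culture supernatants carrying GLA variants were held 1-3 h at 37° C. in acidic McIlvaine buffer, pH 3.3-4.3.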

[3] = HTP-analysis of supernatants pretreated with base (MUGal hydrolysis); details: activity of the variant/activity of Rd3BB (SEQ ID NO: 13); challenge at pH 9.7
Outline: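 GLA variants were secreted by transformed INVSc1 yeast grown 66-84 h at 30° C. Supernatants were exposed to neutral-to-basic buffers (pH 7.0-9.7) at 37° C for 1-18 h, then assayed with MUGal in acidic citrate/McIlvaine buffer, with fluorescence read after quenching.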

Molecule | Relative Activity of GLA Variants After No Challenge (NC) [1] | Relative Activity of GLA Variants After Challenge at pH 3.7 [2] | Relative Activity of GLA Variants After Challenge at pH 9.7 [3]
B1 | + (+ = 1.5 to 5 relative activity over Rd3BB (SEQ ID NO: 13)) | + (+ = 1.5 to 5 relative activity over Rd3BB (SEQ ID NO: 13)) | ++ (++ = >5 to 10 relative activity over Rd3BB (SEQ ID NO: 13))
B2 | + (+ = 1.5 to 5 relative activity over Rd3BB (SEQ ID NO: 13)) | + (+ = 1.5 to 5 relative activity over Rd3BB (SEQ ID NO: 13)) | ++ (++ = >5 to 10 relative activity over Rd3BB (SEQ ID NO: 13))
B3 | + (+ = 1.5 to 5 relative activity over Rd3BB (SEQ ID NO: 13)) | + (+ = 1.5 to 5 relative activity over Rd3BB (SEQ ID NO: 13)) | ++ (++ = >5 to 10 relative activity over Rd3BB (SEQ ID NO: 13))
B4 | + (+ = 1.5 to 5 relative activity over Rd3BB (SEQ ID NO: 13)) | + (+ = 1.5 to 5 relative activity over Rd3BB (SEQ ID NO: 13)) | ++ (++ = >5 to 10 relative activity over Rd3BB (SEQ ID NO: 13))
B5 | + (+ = 1.5 to 5 relative activity over Rd3BB (SEQ ID NO: 13)) | + (+ = 1.5 to 5 relative activity over Rd3BB (SEQ ID NO: 13)) | ++ (++ = >5 to 10 relative activity over Rd3BB (SEQ ID NO: 13))
B6 | + (+ = 1.5 to 5 relative activity over Rd3BB (SEQ ID NO: 13)) | + (+ = 1.5 to 5 relative activity over Rd3BB (SEQ ID NO: 13)) | ++ (++ = >5 to 10 relative activity over Rd3BB (SEQ ID NO: 13))
B7 | + (+ = 1.5 to 5 relative activity over Rd3BB (SEQ ID NO: 13)) | + (+ = 1.5 to 5 relative activity over Rd3BB (SEQ ID NO: 13)) | ++ (++ = >5 to 10 relative activity over Rd3BB (SEQ ID NO: 13))
B8 | + (+ = 1.5 to 5 relative activity over Rd3BB (SEQ ID NO: 13)) | + (+ = 1.5 to 5 relative activity over Rd3BB (SEQ ID NO: 13)) | ++ (++ = >5 to 10 relative activity over Rd3BB (SEQ ID NO: 13))
B9 | + (+ = 1.5 to 5 relative activity over Rd3BB (SEQ ID NO: 13)) | + (+ = 1.5 to 5 relative activity over Rd3BB (SEQ ID NO: 13)) | ++ (++ = >5 to 10 relative activity over Rd3BB (SEQ ID NO: 13))
B10 | + (+ = 1.5 to 5 relative activity over Rd3BB (SEQ ID NO: 13)) | +++ (+++ = >10 relative activity over Rd3BB (SEQ ID NO: 13)) | ++ (++ = >5 to 10 relative activity over Rd3BB (SEQ ID NO: 13))
B11 | + (+ = 1.5 to 5 relative activity over Rd3BB (SEQ ID NO: 13)) | + (+ = 1.5 to 5 relative activity over Rd3BB (SEQ ID NO: 13)) | ++ (++ = >5 to 10 relative activity over Rd3BB (SEQ ID NO: 13))
B12 | + (+ = 1.5 to 5 relative activity over Rd3BB (SEQ ID NO: 13)) | + (+ = 1.5 to 5 relative activity over Rd3BB (SEQ ID NO: 13)) | ++ (++ = >5 to 10 relative activity over Rd3BB (SEQ ID NO: 13))
